18 sequences from the DeepSol protein solubility set can be followed below.

A short description of the data set: soluble on expression in E. coli; label from the status in PepcDB or PDB records.
On to “MGSDKIHHHHHHMLELKHNFIFEDQPVAWGCMGQGPALVLIHGTPFSSQVWRRIAPLLSSHWTVYYYDMVGYGQSHKSAGQQVSLGGQDRLLAALLKEWKLTRPDILCHDFGGATALRGYFLQGLRYASLTLFDAVAISPWGSPFVAHVRKHQDAFTGLPKYAHDALLSAYLQGAAYQPLSEEALNIYMSPWQGEVGQAAFYRQIAQMDQCYTDDIEPLLTELDCPVNMLWGEQDEWIPLEVGKRLAHRLGDAPLQIVKNAGHLVQEDAPEAIVQSMYSLLLKRAGTSSSR”, for which the “soluble on expression in E. coli” value was “not soluble”.
Regarding “GAAAGVAAWLPFARAAAIGWMPVANCPMPLAPADKNKRQDELIVLNVSGRRFQTWRTTLERYPDTLLGSTEKEFFFNEDTKEYFFDRDPEVFRCVLNFYRTGKLHYPRYECISAYDDELAFYGILPEIIGDCCYEEYKDRKREN”, the “soluble on expression in E. coli” value is recorded as “soluble”.
“MNLTHQDFNLFNREIFTFKQLKEQQTSAEIDALKQTYKQHWEKWKALNLAIAQGLPAELGITKPKIESWTNGWNLRSHFWAAYRSEQRQAENACLALLLNKKQFQVYLMFQHYKSEERTGSVVAYNQLLNRLEAWSQTIDCEGYYIWPQEEHELVDHLPLKDYLADEKQRKILEERIGNRSFQIGKLWFATEKLETIEEKSCQALQELAPLYNALSEK”: the “soluble on expression in E. coli” value is “not soluble”.
Under “MGSDKIHHHHHHMSNSQILGERARILADQLLAVPTTVYQQRSLQAALHLFLDTGTKTALHRAPLVSKSAVSRLLNNYDWDTAACWALLQRSQWEALLLAARRKRRACLRLSVDLTSIEKTGKQLPFVRVYNEVHGIHLVVLFAEYRGLKFPVGYRVYRGKGTATPVSLALELLGEVPDAIRKRFRIRVLADSGFEAAVFLDGVRTLGFEFVVGVRATRRTTHPGQVTVADCEHGAWLELQNWPHDTLTLARVERGERTFFSVASELMTGDEVAAEGGKRWNIESFFKEGKHQFSLQQFALRTARGLDRWVLLVFLAFTLTMLHRSPDLSLEEAAGLALTLALPFLRLNVIFARLATDEEFLRQHGYSLKIARCNS” stands “not soluble”; under “MDYDQQPIMYDEVELLIQAVDQQPHPLLRLRDKAIIQLGLQGGFRRSELANLKVHYLSFMRDKLKVRLPFSKSNQQGLREWKSLPDSEPFAAYHAVKSWLNESQITDGHLFRSISRDGKTLRPYHVNDNSKPKSTFSRNSGFLNGDDIYRIIKQYCLKAGLPAQYYGAHSLRSGCVTQLHENNKDILYIMARTGHTDPRSLRHYLKPKEDLEHHHHHH”, “not soluble”; under “MGSDKIHHHHHHMEVIHPRCAGVDISKKDAKVCVRIQGRGGRSTTSTITTWGSMTGQILGLKEHLLDEHVDLVVMEATGDYWRPFYYLLEDDGLNIILVNAHDARNVPGRKTDVSDAAWLADLGAHGLVRASFVPPPPIRELRDLTRARTIITQERTREIQRLEKLLEDACIKLSSVASNITGVSGRLILQALIDGQTDPAALAEMAQRRLRSKIPELTQALNGRFTEHHRYMTGLYLHRIDAHTADINDLSARIEAAMEPFRFARELLVSIPGFSTTIAEIFIAETGADMSAFATAGQLASWAGTSPGSNESAGRVKSTKTRPGNRYLKGALGIAALSCAKSKNTYLGARYRRIASRRGPAKALVAVEHSILTAAWHMLTTGELYNDPGADYFTRQTPVKTMARAVRQLESLGYQVILEPLQQTG”, “not soluble”.
With “GPGSMLALSQGLPTVDPALVKAFKRAANNASTSGDVDDDSRRQEVARINKEAQKAWRAEEKSFIPAIYLRTRDPSAEDVLQHLRVTSKAFELNLRFRDIEQLDEMQVKLWSLLTADKSKQTVTISEFTEIMNKLKVWQGQRFEPTPKTSPCREISVRSAQQECPVDTTPLDEVMYVGVAKRPRPSLQLFLSCPRSHAGGVEVAHIYQRFAKQVSLVKCEAELLMWDTNNDGRLTEDELESYVRDLVSRVDALRDISNDILPFYCCAVSRRIFWALDPGMRGTIRIDALLQSPLMDEWVSLQLMREDLPRNWFSAAITSHLYDKFLLLDTRNQGTLNAANMKLYKKGLPTVRDDGLPRGVGPLSSLFIDRFFETSVMMACSELDFRKFVDFVIAVEFLPACQRPLFFWNILDIEGCGVLRPVHVNSFFRETHSKLVEAGLEMPSRETVVQEVFDLIPTAEPLRITREEFVKAPQAGLFVALLIDCLSFWAYENREQR” the entry was “not soluble”; with “MGFQLRGDYLLDDDLQTLYVSSSDIHGELTRLVKLNLTRNQVNVLKHSKADVPELRILSDKLDRRTLSLFSNGQVAEYELIYSVHYQVRFTGEDARDFRFELYRDYQDDPNIALAKSRELSLLLSEMRTSAADKILRDLARIQRLEHHHHHH”, “soluble”; with “MGSSHHHHHHSSGLVPRGSHMATADPYDALRRRWLGITLGTGYDPAAEPYASRLAETGERAREHRATMAPTPTSLWPGHPFDPPAGITFAYGRLWTMTEAYVQEGTGATGDPALLADILRGLDHLSATVYHPATTRYGNWWEWQIGSPRLLMDITAALYDHLGADRVAAACAAVDHFVPDAMLGAYTGTSTGANRVDLCRSVALRGVLGRAPAKIALARDALSPVFPYVTKGDGLYADGSFVQHTWVAYSGTYGQVMLDGLGRLFTLLAGSEWEVTDPGRQLVLDSVEHAYAPLIHDGLVMDTVNGRAISRGYLKSDDLHVMRSDHFHGQQLIAAMAVLAGGASNAERERWHARIKGWIERDTVTPVLTAPQFPVADLTRLHAIADAPGEAAPEPVGHHLFAAMDRAVHRRPAFTAGLAMASDRIAHYECGNGENPRGWHTGAGMLTWWANGTRADQYTDWFWPTVDWYRLPGTTVSTKRLADRAGGEWGAPKPDVRWVGGATDGEYAAVGQHLKGLGSTLEARKSWFFLDDAVVCLGAGITCADGVPVETVVDNRNLGEGGTQALVRGRHWAHLEGHGGWIVPGGALRTLREDRTGAWSDINTTSTTERRTRRWQTLWLDHGTDPAGADYVYTVMPGASRAALARRAADRHWLTVLANDDRRQAVSVPSLGLTAANFWQAGTAGPLTTTAGASVLVRRRGRTATLRVSEPPRTGEALEIVWDHPVGAVLRADETVEILATGRRLHLRVTPGVVCTTHECEVTLS”, “soluble”.
Under “MATVAFQTLGCKVNHYETEAIWQLFKGEGYEKVDFEQMADVYVINTCTVTNTGDKKSRQVIRRAIRKNPDAVICVTGCYAQTSPAEVMAIPGVDIVVGTQDRKKMLEYIEQYKKERQPINGVGNIMKSRVYEELDVPAFTDRTRASLKIQEGCNNFCTFCIIPWARGLMRSRDPKEVIKQAEQLVQAGYKEIVLTGIHTGGYGEDLKDYSLARLLEDLEQVNGLKRIRISSIEASQLTDEVIEVIDRSTKVVRHLHIPLQSGSDTVLKRMRRKYTMAFFAERLERLREALPGLAVTSDVIVGFPGETEAEFQETYDFIAKHKFSELHVFPYSKRTGTPAARMEDQVNEDVKNERVHRLIQLSDQLAKEYASQFEGEVLEMIPEERDKEEPNSGLYVGYTDNYLKVKIPATDEMIGKLVKVKITKAGYPYNEGEFVRVLDEEPQAVAHGLEHHHHHH” stands “soluble”.
Take “MASPELAEKLKKRLDGTDQEPETNPHQAPPPAPVIPQKIVENPYIPSVDTSIDDLIFKALEKKEENNNNNNNNNSNSTTTTPLEIKTERNQQHEHTTIDPRSPPPKRSILELLEQERLENELQQQSAPVPKTPVMVITKGAFPRSASPRRQQFVRENEDGNELEKRLAAQRMKKYTEEMESLVQKQVDVLDQIMSSPPPPPTSPPQLPPTPPARITSVRSDESIEEEERRRKESEETASFEELEAEIMRISRSPVPPPVLSIPPPPPPNIPLPTIPQEVQSPPSPRPTSVPPPIPSPGPSEDVNMDELIESFSDSVIFNNSMSPPPPLPPLRESSLETLEVTPEDPVTESKVEASPTPLPKATESLNESSIKALEGLEVKALEAQEASDDRPSAPTPIRDSSLPPPPPPKPETPLAIRRAGPIPTPQLLEMIHQEDCSIRPSSPTSVSHGSRPQSPAVPKKPSVTVSPLGLLCDPNLSIEKPEEMKTEDTKPVETAPAPVDEAELNDALDRRNKINEATCLTKIFPSLARMFR”: the “soluble on expression in E. coli” value is listed as “not soluble”.
Under “PPESDGFSDVRKVGYLRKPKSMHKRFFVLRAASEAGGPARLEYYENEKKWRHKSSAPKRSIPLESCFNINKRADSKNKHLVALYTRDEHFAIAADSEAEQDSWYQALLQLHNRAKGHHDGAAALGAGGGGGSCSGSSGLGEAGEDLSYGDVPPGPAFKEVWQVILKPKGLGQTKNLIGIYRLCLTSKTISFVKLNSEAAAVVLQLMNIRRCGHSENFFFIEVGRSAVTGPGEFWMQVDDSVVAQNMHETILEAMRAMSDEFRPR” stands “soluble”; under “KFDGDDPVIPEWTQGGQIIPTMNLKVGDSVYTRVFDQSGENVAYRTELAISNDVLTQAKNWSYALASKINQEQTKLQAGQYSEDKFTPVYGTNPIYLQSNSGLERVEIGYNIETPVPDYSLTVDGLASEYIIGTEPTALDLTLTAEGDLTAELTVYNHHREPLASWTGSIQDGASEQVELTLSKSEPGHHMLVTRIKDTDGNLVDQQTLDFHLKSEEVTPPPSGEYDFVFPEGLSSYTAGTKVLASDGAIYQCKPFPYSGYCVQWSESATQFEPATGSHWEMAWDKLN”, “not soluble”; under “MKIDKYSAILGNTVGFHNMSTLTDHRPVASLPFGGKYRLIDFPLSSLANAGVRSVFGIFQQDNISSVFDHIRSGREWGLSTLLSHYYLGIYNTRVESSTVGKEYYQQLLTYLKRSGSNQTVALNCDVLINIDLNQVFHLHSTTKEPITVVYKKLAKKDISEVNAILDVDETDHVLSHKLFDSKSTAETFNMSTDIFVVDTPWLIEHLEEEAKKEHPEKLRYVLRDLAVKEGAFAYEYTGYLANIHSVKSYYQANIDMLESQKFYSLFSPNQKIYTKVKNEEPTYYANTSKVSTSQFASGSIIEGQVANSVLSRNIHVHKDSLVKDSLLFPRVVIGEGAQVEYAILDKGVEVEHGVVIRGTAEHPVVVKKGAKVTEDIHS”, “not soluble”.
Consider “SNAMLIIETLPLLRQHIRRLRQEGKRVALVPTMGNLHDGHMKLVDEAKARADVVIVSIFVNPMQFDRPDDLVRYPRTLQEDCEKLNKRKVDYVFAPAVEEIYPHGLEGQTYVDVPGLSTMLEGASRPGHFRGVSTIVSKLFNLIQPDIACFGEKDFQQLALIRKMVADMSYDIEIVGVPIIRAKDGLALSSRNAYLTAEQRKIAPGLYNVMNSIAEKLIAGNRELQEIIAIAEQELNEKGFRADDIQIRDADTLLELTETSKRAVILAAAWLGQARLIDNQSVTLAQ”, for which the “soluble on expression in E. coli” value is reported as “soluble”.
“MAQEFVNCKIQPGKVVVFIKPTCPYCRRAQEILSQLPIKQGLLEFVDITATNHTNEIQDYLQQLTGARTVPRVFIGKDCIGGCSDLVSLQQSGELLTRLKQIGALQ”: the “soluble on expression in E. coli” value is “soluble”.
With “MTIADCDPQISFEKEVYFPGDEVKGRAWVSTTKNLKATSVEITFSGKTITAHNGKKIIKDKKCKKGEETYVEMKHEVWTPEDTENTFPSGDYEWNFSFELPKDCPPSFEGKYGFIRYSVLLHIAVPNGKPINVERAVTVSSMVDLNAVNAHEPAKIHVDNVAEYCHCLPCLPTRGNVIYTLQSPKCGYVAGENVIVSGQIENGTSKPMKIITAKLTRRITYREELKAKANAKKKADGADGFKSKLEEQILETKIERCNVPARSSKDFAFSFDIPAVVSTIRSSRLLAVEYFVTVWGDTGTCNRGGVAALNIIVGNVPLFLGSSSLPPRKFVDGEDAQSWTVDMKPVFTYQVPYYGH” the entry was “not soluble”; with “KPFNDEKTAKIAEEVQQFYESNATISLNEYLENVGELGYELYLTDGAEKSTYYGGAFRKKDLPDKTIKQVLDGETYHGIDSFDTGIFITGFFDNDVRNTIGVPVQADGKQLALFIRQDPEKQFGE”, “not soluble”.
